The test addresses DcpA (Agrobacterium tumefaciens C58). Briefly: cross-linking.

In turn, PruR (natural protein) registered a stoichiometry N of 1.

By stoichiometry N is commonly meant a count of units in the complex or per binding partner.

Values taken from paper PMC10680838.
